# Target: HLA-DR1 (human)
# Test: fluorescence polarization competition; displaces 25 nM fluorescently-labeled polypeptide from 500 nM HLA-DR1
row,Binder,IC50 [µM]
1,MGPKGRTVIIEQSLGSPKVTK (also called ALP21) [APL21],4.15
2,RSFTLAASETGVG [APL16],5.55
3,SIDLKDKKYKNIGAKLVQLVANNTNEEA [APL20],3.88
4,IWYINCFACETHAML [APL11],3.98
5,FKGEQAGAGE [FNS007 (APL2)],3.37
6,IWYISCFGCETHAML [APL9],5.09
7,IWYINCFVCETHAML [APL12],5.2
8,IWYIQCFGCETHAML [APL8],5.47
9,RSFALASSETGVG [APL13],5.02
10,RSFTLASSEAGVG [APL18],4.88
11,IWYITCFGCETHAML [APL10],5.87
12,RSFTLASSATGVG [APL17],3.53
13,RSFTAASSETGVG [APL14],6.54

# Target: HLA-DR1 (human)
# Test: as above
# Remark: another data set of the same source
row,Binder,IC50 [µM]
1,RSGTLASAETGVG [APL60],61.7
2,IWYINCFGCHTAAML [APL56],69.2
3,FKGRQAGAGE [APL41],88.4
4,IWYINCFGCRTAAML [APL55],98.8

# Reference: patent US20250074946A1 (HEBEI FITNESS BIOTECHNOLOGY, published 2025)
